Biological target: T1, human sortilin receptor (SORT1), recombinant protein (human, UniProt Q99523 78-755, limits assumed)
T1 construct: Recombinant protein; also called sortilin 1
T1 sequence (looked up): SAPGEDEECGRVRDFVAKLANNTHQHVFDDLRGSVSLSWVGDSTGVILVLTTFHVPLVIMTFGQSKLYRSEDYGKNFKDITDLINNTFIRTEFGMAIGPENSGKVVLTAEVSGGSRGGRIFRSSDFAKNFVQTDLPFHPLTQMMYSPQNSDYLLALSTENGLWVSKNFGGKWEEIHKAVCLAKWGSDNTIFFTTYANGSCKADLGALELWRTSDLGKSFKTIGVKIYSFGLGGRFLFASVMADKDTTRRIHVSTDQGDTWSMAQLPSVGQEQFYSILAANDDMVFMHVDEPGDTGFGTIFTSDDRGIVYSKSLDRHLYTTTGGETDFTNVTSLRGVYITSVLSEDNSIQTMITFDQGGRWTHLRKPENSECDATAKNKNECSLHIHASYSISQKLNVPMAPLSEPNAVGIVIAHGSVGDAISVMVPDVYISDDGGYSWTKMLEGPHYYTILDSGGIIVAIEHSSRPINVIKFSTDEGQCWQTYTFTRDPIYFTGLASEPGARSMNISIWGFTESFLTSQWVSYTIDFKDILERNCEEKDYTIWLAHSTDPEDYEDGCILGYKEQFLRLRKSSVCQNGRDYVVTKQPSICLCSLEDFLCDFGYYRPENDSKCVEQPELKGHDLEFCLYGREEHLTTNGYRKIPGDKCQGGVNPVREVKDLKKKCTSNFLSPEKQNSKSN
Assay: Biacore (SPR), His-tagged PGRNΔ3 over immobilized human sortilin

- binding result: no binding
B1: recombinant human His-tagged progranulin lacking the final three carboxy-terminal amino acids (PGRNΔ3) (ligand)
chain: TRCPDGQFCPVACCLDPGGASYSCCRPLLDKWPTTLSRHLGGPCQVDAHCSAGHSCIFTVSGTSSCCPFPEAVACGDGHHCCPRGFHCSADGRSCFQRSGNNSVGAIQCPDSQFECPDFSTCCVMVDGSWGCCPMPQASCCEDRVHCCPHGAFCDLVHTRCITPTGTHPLAKKLPAQRTNRAVALSSSVMCPDARSRCPDGSTCCELPSGKYGCCPMPNATCCSDHLHCCPQDTVCDLIQSKCLSKENATTDLLTKLPAHTVGDVKCDMEVSCPDGYTCCRLQSGAWGCCPFTQAVCCEDHIHCCPAGFTCDTQKGTCEQGPHQVPWMEKAPAHLSLPDPQALKRDVPCDNVSSCPSSDTCCQLTSGEWGCCPIPEAVCCSDHQHCCPQGYTCVAEGQCQRGSEIVAGLEKMPARRASLSHPRDIGCDQHTSCPVGQTCCPSLGGSWACCQLPHAVCCEDRQHCCPAGYTCNVKARSCEKEVVSAQPATFLARSPHVGVKDVECGEGHFCHDNQTCCRDNRQGWACCPYRQGVCCADRRHCCPAGFRCAARGTKCLRREAPRWDAPLRDPALR
notes: also called PGRNDel3; progranulinΔ3; not shown: HIS-tag fused to the N-terminal part of the protein

— patent US20260250711A1 (Alexion, published 2026)
